Data reported in paper PMC5875850, “Insights into DNA substrate selection by APOBEC3G from structural, biochemical, and functional studies”.

How the values were obtained:
[1] = target: Pot1-A3GCTD fusion (Pot1A3GCTD) (Schizosaccharomyces pombe (Pot1) / Homo …, UniProt O13988 1-185+Q9HC16:195-384, L234K;C243A;F310K;C321A;C356A;internal_change); experiment: size exclusion chromatography; Kinetic Kd: 20 mM Tris pH 8.0, 1 mM DTT, 37 C, 1-50 uM enzyme, 40 nM DNA; SEC/complex: 50 mM Tris pH 7.0, 100 mM NaCl, 0.1 mM TCEP (stated for the Pot1-A3GCTD gel filtration); crystals 20 C, 100 mM HEPES pH 7, 200 mM LiCl, 20% PEG 6000; settings: protein: recombinant; tags: His6-Staph nuclease tag removed by SARS-CoV Mpro; single strand
Sequence of Pot1-A3GCTD fusion (Pot1A3GCTD) (O13988 other isoform, or with tags, fused parts or gaps L234K;C243A;F310K;C321A;C356A;): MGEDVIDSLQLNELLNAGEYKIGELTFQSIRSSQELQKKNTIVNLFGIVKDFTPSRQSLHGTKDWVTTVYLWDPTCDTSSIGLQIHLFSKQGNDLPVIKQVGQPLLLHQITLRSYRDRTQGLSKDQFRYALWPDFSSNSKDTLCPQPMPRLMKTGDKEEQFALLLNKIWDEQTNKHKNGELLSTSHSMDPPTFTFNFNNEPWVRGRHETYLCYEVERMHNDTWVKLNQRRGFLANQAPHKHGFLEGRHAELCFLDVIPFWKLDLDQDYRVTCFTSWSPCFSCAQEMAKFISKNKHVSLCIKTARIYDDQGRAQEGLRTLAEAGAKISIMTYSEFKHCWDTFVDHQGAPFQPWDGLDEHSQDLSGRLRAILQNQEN

[2] = target: A3GCTD WT (A3G191-384-2K3A) (Homo sapiens, UniProt Q9HC16 191-384, L234K;C243A;F310K;C321A;C356A); experiment: single-turnover deamination kinetics (kobs vs [E], hyperbolic fit); Kinetic Kd: 20 mM Tris pH 8.0, 1 mM DTT, 37 C, 1-50 uM enzyme, 40 nM DNA; SEC/complex: 50 mM Tris pH 7.0, 100 mM NaCl, 0.1 mM TCEP (stated for the Pot1-A3GCTD gel filtration); crystals 20 C, 100 mM HEPES pH 7, 200 mM LiCl, 20% PEG 6000; settings: protein: recombinant; tags: His6-MBP tag removed by SARS-CoV Mpro; label: 5' 32P; single strand
Sequence of A3GCTD WT (A3G191-384-2K3A) (Q9HC16 191-384 L234K/C243A/F310K/C321A/C356A, one chain of several): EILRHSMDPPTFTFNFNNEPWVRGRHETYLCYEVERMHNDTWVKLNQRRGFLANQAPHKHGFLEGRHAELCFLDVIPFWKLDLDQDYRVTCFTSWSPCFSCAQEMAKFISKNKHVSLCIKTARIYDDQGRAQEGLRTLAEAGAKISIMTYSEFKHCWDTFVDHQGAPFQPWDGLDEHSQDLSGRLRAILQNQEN

Q: Does AGAAGACCCAAAGAAGAGGAAGCAGGTTAC (ssDNA) [30nt Pot1/A3G substrate (CCCA + GGTTAC)] bind [1]?
A: binds

Q: With TAGAAAGGGAGACCCAAAGAGGAAAGGTGA (ssDNA) [CCCA 30-mer] as the binder, how does the Kd [2] read?
A: 26 µM
